In US8114831B2, “Guanylate cyclase receptor agonists for the treatment of tissue inflammation and carcinogenesis” (Synergy Pharmaceuticals Inc., priority 2001, dated 2012):
Positions of bridges follow the written chain, without caps; N, C: chain ends. No end group written: not given here.

Key:
[1] = target: T1, guanylate cyclase receptor (Homo sapiens, UniProt P25092); assay: T84 cell-based assay for determining the intracellular levels of cGMP; details: for ability to enhance intracellular levels of cGMP (ranking in words): T84 cell-based assay, text summary of Table 4; for cGMP Level (intracellular cGMP level observed in T84 cells): 1 micromolar peptide agonist, 30 minutes
T1 construct: host or cells: T84 human colon carcinoma cells
Procedure: Cell Culture: Human T84 colon carcinoma cells were obtained from the American Type Culture Collection at passage 52. Cells were grown in a 1:1 mixture of Ham's F-12 medium and Dulbecco's modified Eagle's medium (DMEM) supplemented with 10% fetal bovine serum, 100 U penicillin/ml, and 100 μg/ml streptomycin. The cells were fed fresh medium every third day and split at a confluence of approximately 80%.
(§1) T84 cell-based assay for determining the intracellular levels of cGMP: Peptide analogs were custom synthesized by Multiple Peptide Systems, San Diego, Calif., and by Princeton Biomolecules, Langhorne, Pa. Biological activity of the synthetic peptides was assayed as previously reported (15). Briefly, the confluent monolayers of T-84 cells in 24-well plates were washed twice with 250 μl of DMEM containing 50 mM HEPES (pH 7.4), pre-incubated at 37° C. for 10 min with 250 μl of DMEM containing 50 mM HEPES (pH 7.4) and 1 mM isobutylmethylxanthine (IBMX), followed by incubation with peptide analogs (0.1 nM to 10 μM) for 30 min. The medium was aspirated, and the reaction was terminated by the addition of 3% perchloric acid. Following centrifugation, and neutralization with 0.1 N NaOH, the supernatant was used directly for measurements of cGMP using an ELISA kit (Caymen Chemical, Ann Arbor, Mich.).

[2] = target: T1, guanylate cyclase receptor; assay: as above; details: for intracellular production of cGMP at different pH values: pH 5 to 7
[3] = Heat stability: peptide solutions heated at 95° C., then tested for biological activity in the T84 cell-based assay; type: physicochemical; details: 10 micromolar solution, read-out T84 cell-based assay
Procedure: as §1
To examine heat stability, 10 micromolar solutions of peptide analogs were heated at 95° C. for up to 90 minutes. At specific times during the treatment, samples were tested for their biological activity in the T84 cell-based assay. […] Based on energy calculations and 3D structure, we expected that the negatively charged carboxyl group of the side chain in position 3 of SEQ ID NO:1 specifically interacts with a positively charged binding site on the receptor. […] At the same time, to ensure efficiency of this particular interaction, an entire system of the long-range electrostatic interactions between ligand and receptor should be well balanced. Since the Glu^2 side chain presents more conformational possibilities compared to the Asp^2 side chain, this balance may be slightly changed in SP302 (double substitution of Asp's for Glu's) compared to SP304 (single substitution of Asp^3 for Glu^3). Indeed, biological activity of SP 304 is the best amongst the analogs evaluated.

T1 sequence (P25092 24-1073): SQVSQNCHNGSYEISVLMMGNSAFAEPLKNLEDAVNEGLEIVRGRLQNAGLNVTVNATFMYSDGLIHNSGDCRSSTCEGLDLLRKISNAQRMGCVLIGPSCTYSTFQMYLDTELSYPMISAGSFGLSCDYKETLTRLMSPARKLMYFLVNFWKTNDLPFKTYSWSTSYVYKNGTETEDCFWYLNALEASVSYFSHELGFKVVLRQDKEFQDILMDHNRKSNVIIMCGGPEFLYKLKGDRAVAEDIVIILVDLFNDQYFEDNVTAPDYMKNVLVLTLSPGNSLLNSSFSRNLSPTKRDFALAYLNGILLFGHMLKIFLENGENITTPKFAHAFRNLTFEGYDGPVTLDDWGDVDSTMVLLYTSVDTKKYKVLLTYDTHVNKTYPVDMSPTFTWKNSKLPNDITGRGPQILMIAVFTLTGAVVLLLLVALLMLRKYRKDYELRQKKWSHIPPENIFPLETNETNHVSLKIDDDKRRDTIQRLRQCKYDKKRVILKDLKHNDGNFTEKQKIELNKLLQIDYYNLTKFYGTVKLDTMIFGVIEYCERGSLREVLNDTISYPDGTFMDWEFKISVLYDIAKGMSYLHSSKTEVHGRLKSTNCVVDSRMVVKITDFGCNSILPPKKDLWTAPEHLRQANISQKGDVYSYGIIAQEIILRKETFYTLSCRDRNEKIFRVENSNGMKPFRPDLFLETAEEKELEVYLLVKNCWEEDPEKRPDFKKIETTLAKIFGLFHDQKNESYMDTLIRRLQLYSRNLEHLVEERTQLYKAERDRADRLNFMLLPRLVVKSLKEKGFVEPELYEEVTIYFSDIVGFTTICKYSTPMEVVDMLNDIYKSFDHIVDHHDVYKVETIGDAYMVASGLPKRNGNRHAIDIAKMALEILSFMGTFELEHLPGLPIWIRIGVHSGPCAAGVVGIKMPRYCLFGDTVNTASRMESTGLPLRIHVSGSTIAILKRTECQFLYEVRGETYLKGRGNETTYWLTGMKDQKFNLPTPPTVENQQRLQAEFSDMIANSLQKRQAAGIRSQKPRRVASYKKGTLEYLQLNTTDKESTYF

Row | Substance | ability to enhance intracellular levels of cGMP (ranking in words) [1] | cGMP Level (intracellular cGMP level observed in T84 cells) ([1]; T84 cells) [pmol/well] | intracellular cGMP level in combination with sulindac sulfone ([1]; T84 cells, combination with cGMP dependent phosphodiesterase inhibitor sulindac sulfone) | intracellular cGMP level in combination with Zaprinast ([1]; T84 cells, combination with cGMP dependent phosphodiesterase inhibitor zaprinast) | intracellular production of cGMP at different pH values [2] | enhancement of intracellular cGMP, comparison among peptides ([2]; pH between 6.5 and 7) | biological activity after heating for 60 minutes [3] | biological activity after heating for 90 minutes, relative to original value [3]
1 | Asn^1 Asp^2 Glu^3 Cys^4 Glu^5 Leu^6 Cys^7 Val^8 Asn^9 Val^10 Ala^11 Cys^12 Thr^13 Gly^14 Cys^15 Leu^16 (NDECELCVNVACTGCL; disulfide 4-12, 7-15) [SP 304, [Glu^3]-UG, [4,12; 7,15] bicycle with two disulfide linkages] | greatest enhancement of intracellular cGMP | 315 | synergistic increases | synergistic increases | enhanced intracellular production of cGMP | greatest enhancement | did not change significantly | remained unaltered
2 | SP 316: 14-residue peptide Glu Cys Glu Leu Cys Val Asn Val Ala Cys Thr Gly Cys Leu, positions 3-16, disulfides 4-12 and 7-15 (ECELCVNVACTGCL; disulfide 2-10, 5-13) | second in effectiveness | 275 | – | – | – | – | – | –
3 | [Glu^2, Glu^3]-UG (NEECELCVNVACTGCL; ends and bridges not checked; cysteine pairing not given here; UniProt Q16661 97-112, looked up, variant D2E D3E) [SP 302, uroguanylin analog, double substitution of Asp's for Glu's] | somewhat weaker | 225 | – | – | enhanced intracellular production of cGMP | – | did not change significantly | about 80%
4 | [Glu^2]-UG (NEDCELCVNVACTGCL; ends and bridges not checked; cysteine pairing not given here; UniProt Q16661 97-112, looked up, variant D2E) [SP 303, uroguanylin analog with Glu in position 2] | somewhat weaker | 195 | – | – | enhanced intracellular production of cGMP | – | did not change significantly | about 80%
5 | bicyclo[4,12; 7,15]Asn^1-Asp^2-Asp^3-Cys^4-Glu^5-Leu^6-Cys^7-Val^8-Asn^9-Val^10-Ala^11-Cys^12-Thr^13-Gly^14-Cys^15-Leu^16 (NDDCELCVNVACTGCL; disulfide 4-12, 7-15; listed as Homo sapiens) [SP 301, human uroguanylin, parent compound, reference compound] | somewhat weaker | 205 | – | – | enhanced intracellular production of cGMP | – | did not change significantly | about 80%
